Laboratory results as given in the supplement of paper PMC5998384.

Tests used:
[1] = system: HeLa Kyoto; assay: solubility in G1/S (NP-40 vs SDS abundance) (log2 ratio); higher = more soluble; conditions: cell cycle stage: G1/S
[2] = system: HeLa Kyoto; assay: solubility change mitosis vs G1/S (difference of NP-40 vs SDS log2 ratios) (log2 ratio difference); higher = more soluble in mitosis
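Wherever solubility change mitosis vs G1/S (difference of NP-40 vs SDS log2 ratios) is given: synchronized HeLa Kyoto cells (double thymidine block for G1/S, nocodazole release for mitosis), protein amounts in NP-40 versus SDS lysates quantified by mass spectrometry, three biological replicates.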
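Wherever solubility in G1/S (NP-40 vs SDS abundance) is given: HeLa Kyoto cells arrested at G1/S by double thymidine block, proteins quantified by TMT10plex mass spectrometry in mild NP-40 versus SDS extracts, three biological replicates.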

| Sequence | solubility in G1/S (log2) [1] | solubility change mitosis (log2) [2] |
| --- | --- | --- |
| MAAPTPARPVLTHLLVALFGMGSWAAVNGIWVELPVVVKELPEGWSLPSYVSVLVALGNLGLLVVTLWRRLAPGKDEQVPIRVVQVLGMVGTALLASLWHHVAPVAGQLHSVAFLALAFVLALACCASNVTFLPFLSHLPPRFLRSFFLGQGLSALLPCVLALVQGVGRLECPPAPINGTPGPPLDFLERFPASTFFWALTALLVASAAAFQGLLLLLPPPPSVPTGELGSGLQVGAPGAEEEVEESSPLQEPPSQAAGTTPGPDPKAYQLLSARSACLLGLLAATNALTNGVLPAVQSFSCLPYGRLAYHLAVVLGSAANPLACFLAMGVLCRSLAGLGGLSLLGVFCGGYLMALAVLSPCPPLVGTSAGVVLVVLSWVLCLGVFSYVKVAASSLLHGGGRPALLAAGVAIQVGSLLGAVAMFPPTSIYHVFHSRKDCADPCDS [SLC52A2] | -0.143 | 0.202 |
| MAAPVGPVKFWRPGTEGPGVSISEERQSLAENSGTTVVYNPYAALSIEQQRQKLPVFKLRNHILYLIENYQTVVIVGETGCGKSTQIPQYLAEAGWTAEGRVVGVTQPRRVAAVTVAGRVAEERGAVLGHEVGYCIRFDDCTDQLATRIKFLTDGMLVREMMVDPLLTKYSVIMLDEAHERTLYTDIAIGLLKKIQKKRGDLRLIVASATLDADKFRDFFNQNETSDPARDTCVILTVEGRTFPVDIFYLQSPVPDYIKSTVETVVKIHQTEGDGDVLAFLTGQEEVETVVSMLIEQARALARTGMKRHLRVLPMYAGLPSFEQMKVFERVSRSVRKVIVATNVAETSITISGIVYVIDCGFVKLRAYNPRTAIECLVVVPVSQASANQRAGRGGRSRSGKCYRLYTEEAFDKLPQSTVPEMQRSNLAPVILQLKALGIDNVLRFHFMSPPPAQSMVQALELLYALGGLDKDCRLTEPLGMRIAEFPLNPMFAKMLLESGNFGCSQEILSIAAMMQIQNIFVVPPNQKSHAIRVHRKFAVEEGDHLTMLNIYEAFIKHNKDSKWCQEHFLNYKGLVRAATVREQLKKLLVKFQVPRKSSEGDPDLVLRCIVSGFFANAARFHSTGAYRTIRDDHELHIHPASVLYAEKPPRWVIYNEVIQTSKYYMRDVTAIESAWLLELAPHFYQQGTHLSLKAKRAKVQDP [DHX35] | -0.538 | 0.261 |
| MAAPVLLRVSVPRWERVARYAVCAAGILLSIYAYHVEREKERDPEHRALCDLGPWVKCSAALASRWGRGFGLLGSIFGKDGVLNQPNSVFGLIFYILQLLLGMTASAVAALILMTSSIMSVVGSLYLAYILYFVLKEFCIICIVTYVLNFLLLIINYKRLVYLNEAWKRQLQPKQD [VKORC1L1] | -0.56 | -0.107 |
| MAARGRRAWLSVLLGLVLGFVLASRLVLPRASELKRAGPRRRASPEGCRSGQAAASQAGGARGDARGAQLWPPGSDPDGGPRDRNFLFVGVMTAQKYLQTRAVAAYRTWSKTIPGKVQFFSSEGSDTSVPIPVVPLRGVDDSYPPQKKSFMMLKYMHDHYLDKYEWFMRADDDVYIKGDRLENFLRSLNSSEPLFLGQTGLGTTEEMGKLALEPGENFCMGGPGVIMSREVLRRMVPHIGKCLREMYTTHEDVEVGRCVRRFAGVQCVWSYEMQQLFYENYEQNKKGYIRDLHNSKIHQAITLHPNKNPPYQYRLHSYMLSRKISELRHRTIQLHREIVLMSKYSNTEIHKEDLQLGIPPSFMRFQPRQREEILEWEFLTGKYLYSAVDGQPPRRGMDSAQREALDDIVMQVMEMINANAKTRGRIIDFKEIQYGYRRVNPMYGAEYILDLLLLYKKHKGKKMTVPVRRHAYLQQTFSKIQFVEHEELDAQELAKRINQESGSLSFLSNSLKKLVPFQLPGSKSEHKEPKDKKINILIPLSGRFDMFVRFMGNFEKTCLIPNQNVKLVVLLFNSDSNPDKAKQVELMRDYRIKYPKADMQILPVSGEFSRALALEVGSSQFNNESLLFFCDVDLVFTTEFLQRCRANTVLGQQIYFPIIFSQYDPKIVYSGKVPSDNHFAFTQKTGFWRNYGFGITCIYKGDLVRVGGFDVSIQGWGLEDVDLFNKVVQAGLKTFRSQEVGVVHVHHPVFCDPNLDPKQYKMCLGSKASTYGSTQQLAEMWLEKNDPSYSKSSNNNGSVRTA [CHSY1] | -0.388 | 0.159 |
| MAARPITLGIDLGTTSVKAALLRAAPDDPSGFAVLASCARAARAEAAVESAVAGPQGREQDVSRILQALHECLAALPRPQLRSVVGIGVSGQMHGVVFWKTGQGCEWTEGGITPVFEPRAVSHLVTWQDGRCSSEFLASLPQPKSHLSVATGFGCATIFWLLKYRPEFLKSYDAAGTIHDYVVAMLCGLPRPLMSDQNAASWGYFNTQSQSWNVETLRSSGFPVHLLPDIAEPGSVAGRTSHMWFEIPKGTQVGVALGDLQASVYSCMAQRTDAVLNISTSVQLAASMPSGFQPAQTPDPTAPVAYFPYFNRTYLGVAASLNGGNVLATFVHMLVQWMADLGLEVEESTVYSRMIQAAVQQRDTHLTITPTVLGERHLPDQLASVTRISSSDLSLGHVTRALCRGIVQNLHSMLPIQQLQEWGVERVMGSGSALSRNDVLKQEVQRAFPLPMSFGQDVDAAVGAALVMLRRHLNQKES [SHPK] | -0.0429 | -0.108 |
| MAASKKAVLGPLVGAVDQGTSSTRFLVFNSRTAELLSHHQVEIKQEFPREGWVEQDPKEILHSVYECIEKTCEKLGQLNIGISNIKAIGVSNQRETTVVWDKITGEPLYNAVVWLDLRTQSTVESLSKRIPGNNNFVKSKTGLPLSTYFSAVKLRWLLDNVRKVQKAVEEKRALFGTIDSWLIWSLTGGVNGGVHCTDVTNASRTMLFNIHSLEWDKQLCEFFGIPMEILPHVRSSSEIYGLMKAGALEGVPISGCLGDQSAALVGQMCFQIGQAKNTYGTGCFLLCNTGHKCVFSDHGLLTTVAYKLGRDKPVYYALEGSVAIAGAVIRWLRDNLGIIKTSEEIEKLAKEVGTSYGCYFVPAFSGLYAPYWEPSARGIICGLTQFTNKCHIAFAALEAVCFQTREILDAMNRDCGIPLSHLQVDGGMTSNKILMQLQADILYIPVVKPLMPETTALGAAMAAGAAEGVDVWSLEPEDLSAVTMERFEPQINAEESEIRYSTWKKAVMKSMGWVTTQSPEGGDPSVFCSLPLGFFIVSSMAMLIGARYISGIP [GK3P] | -0.0732 | -0.0298 |
| MAASLWMGDLEPYMDENFISRAFATMGETVMSVKIIRNRLTGIPAGYCFVEFADLATAEKCLHKINGKPLPGATPAKRFKLNYATYGKQPDNSPEYSLFVGDLTPDVDDGMLYEFFVKVYPSCRGGKVVLDQTGVSKGYGFVKFTDELEQKRALTECQGAVGLGSKPVRLSVAIPKASRVKPVEYSQMYSYSYNQYYQQYQNYYAQWGYDQNTGSYSYSYPQYGYTQSTMQTYEEVGDDALEDPMPQLDVTEANKEFMEQSEELYDALMDCHWQPLDTVSSEIPAMM [TRNAU1AP] | 0.0945 | -0.0623 |
| MAASRRSQHHHHHHQQQLQPAPGASAPPPPPPPPLSPGLAPGTTPASPTASGLAPFASPRHGLALPEGDGSRDPPDRPRSPDPVDGTSCCSTTSTICTVAAAPVVPAVSTSSAAGVAPNPAGSGSNNSPSSSSSPTSSSSSSPSSPGSSLAESPEAAGVSSTAPLGPGAAGPGTGVPAVSGALRELLEACRNGDVSRVKRLVDAANVNAKDMAGRKSSPLHFAAGFGRKDVVEHLLQMGANVHARDDGGLIPLHNACSFGHAEVVSLLLCQGADPNARDNWNYTPLHEAAIKGKIDVCIVLLQHGADPNIRNTDGKSALDLADPSAKAVLTGEYKKDELLEAARSGNEEKLMALLTPLNVNCHASDGRKSTPLHLAAGYNRVRIVQLLLQHGADVHAKDKGGLVPLHNACSYGHYEVTELLLKHGACVNAMDLWQFTPLHEAASKNRVEVCSLLLSHGADPTLVNCHGKSAVDMAPTPELRERLTYEFKGHSLLQAAREADLAKVKKTLALEIINFKQPQSHETALHCAVASLHPKRKQVTELLLRKGANVNEKNKDFMTPLHVAAERAHNDVMEVLHKHGAKMNALDTLGQTALHRAALAGHLQTCRLLLSYGSDPSIISLQGFTAAQMGNEAVQQILSESTPIRTSDVDYRLLEASKAGDLETVKQLCSSQNVNCRDLEGRHSTPLHFAAGYNRVSVVEYLLHHGADVHAKDKGGLVPLHNACSYGHYEVAELLVRHGASVNVADLWKFTPLHEAAAKGKYEICKLLLKHGADPTKKNRDGNTPLDLVKEGDTDIQDLLRGDAALLDAAKKGCLARVQKLCTPENINCRDTQGRNSTPLHLAAGYNNLEVAEYLLEHGADVNAQDKGGLIPLHNAASYGHVDIAALLIKYNTCVNATDKWAFTPLHEAAQKGRTQLCALLLAHGADPTMKNQEGQTPLDLATADDIRALLIDAMPPEALPTCFKPQATVVSASLISPASTPSCLSAASSIDNLTGPLAELAVGGASNAGDGAAGTERKEGEVAGLDMNISQFLKSLGLEHLRDIFETEQITLDVLADMGHEELKEIGINAYGHRHKLIKGVERLLGGQQGTNPYLTFHCVNQGTILLDLAPEDKEYQSVEEEMQSTIREHRDGGNAGGIFNRYNVIRIQKVVNKKLRERFCHRQKEVSEENHNHHNERMLFHGSPFINAIIHKGFDERHAYIGGMFGAGIYFAENSSKSNQYVYGIGGGTGCPTHKDRSCYICHRQMLFCRVTLGKSFLQFSTMKMAHAPPGHHSVIGRPSVNGLAYAEYVIYRGEQAYPEYLITYQIMKPEAPSQTATAAEQKT [TNKS] | 0.036 | -0.258 |
| MAASRSAGEAGPGGSQGRVVRMKRRGGRGPRRGPAGGGEKALKRLKLAVEEFVHATSEGEAPGGCEGRGAPVSFRPGGRKSRKELRKEKRHLRKARRLQRTAGPEQGPGLGGRSGAEEASGHRQDTEERARPAPSRDPSPPRKPRPSRVKAKATAATAKTRPSAAATAAARKRALLAANEEEDREIRKLERCLGLNKRKKKDGSSSVPLSFARDGLDYILGALESGKNSGLYDSSGEEEEDAGQTLPESDLESDSQDESEEEEEGDVEKEKKAQEAEAQSEDDDEDTEEEQGEEKEKGAQEKRRGKRVRFAEDEEKSENSSEDGDITDKSLCGSGEKYIPPHVRQAEETVDFKKKEELERLKKHVKGLLNRLSEPNMASISGQLEELYMAHSRKDMNDTLTSALMGACVTASAMPSRLMMEHVLLVSILHHTVGIEVGAHFLEAVVRKFDAIYKYGSEGKECDNLFTVIAHLYNFHVVQSLLIFDILKKLIGTFTEKDIELILLMLKNVGFSLRKDDALSLKELITEAQTKASGAGSEFQDQTRIRFMLETMLALKNNDMRKIPGYDPEPVEKLRKLQRALVRNAGSGSETQLRVSWDSVLSAEQTGRWWIVGSAWSGAPMIDNSHHTHLQKQLVGTVSSKILELARKQRMNTDIRRNIFCTIMTSEDFLDAFEKLLKLGLKDQQEREIIHVLMDCCLQEKTYNPFYAFLASKFCEYERRFQMTFQFSIWDKFRDLENLPATNFSNLVHLVAHLLKTKSLSLSILKVVEFSELDKPRVRFLRKVLSILLMETEVEDLSLIFTRVSDNPKLGVLREGLKLFISHFLLKNAQAHRSADEANVLREKADLATKCLQGKASLRM [NOM1] | -1 | 0.759 |
